Experimental data from IntAct's records for PubMed 31663853.

B1: Protein phosphatase 1H (Homo sapiens), Q9ULR3 (parent)
chain: MLTRVKSAVANFMGGIMAGSSGSEHGGGSCGGSDLPLRFPYGRPEFLGLSQDEVECSADHIARPILILKETRRLPWATGYAEVINAGKSTHNEDQASCEVLTVKKKAGAVTSTPNRNSSKRRSSLPNGEGLQLKENSESEGVSCHYWSLFDGHAGSGAAVVASRLLQHHITEQLQDIVDILKNSAVLPPTCLGEEPENTPANSRTLTRAASLRGGVGAPGSPSTPPTRFFTEKKIPHECLVIGALESAFKEMDLQIERERSSYNISGGCTALIVICLLGKLYVANAGDSRAIIIRNGEIIPMSSEFTPETERQRLQYLAFMQPHLLGNEFTHLEFPRRVQRKELGKKMLYRDFNMTGWAYKTIEDEDLKFPLIYGEGKKARVMATIGVTRGLGDHDLKVHDSNIYIKPFLSSAPEVRIYDLSKYDHGSDDVLILATDGLWDVLSNEEVAEAITQFLPNCDPDDPHRYTLAAQDLVMRARGVLKDRGWRISNDRLGSGDDISVYVIPLIHGNKLS

Variants of: B1
Conditions: with rab10_human RAB10, P61026
rab10_human RAB10, P61026, sequence (P61026 whole entry): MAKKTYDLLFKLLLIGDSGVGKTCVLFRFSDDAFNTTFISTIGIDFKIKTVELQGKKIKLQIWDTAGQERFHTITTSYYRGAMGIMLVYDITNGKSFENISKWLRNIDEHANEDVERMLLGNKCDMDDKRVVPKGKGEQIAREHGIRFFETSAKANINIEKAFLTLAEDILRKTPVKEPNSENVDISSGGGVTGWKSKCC

Row | Variant | effect of a mutation on the interaction
1 | D288A | causing an interaction
2 | D288E | causing an interaction
